B1: myc-HTR6 [mouse] / EGFP-RABL2B [human] (parent complex)
chain 1: MVPEPGPVNSSTPAWGPGPPPAPGGSGWVAAALCVVIVLTAAANSLLIALICTQPALRNTSNFFLVSLFTSDLMVGLVVMPPAMLNALYGRWVLARGLCLLWTAFDVMCCSASILNLCLISLDRYLLILSPLRYKLRMTAPRALALILGAWSLAALASFLPLLLGWHELGKARTSAPGQCRLLASLPYVLVASGVTFFLPSGAICFTYCRILLAARKQAVQVASLTTGTATAGQALETLQVPRTPRPGMESADSRRLTTKHSRKALKASLTLGILLSMFFVTWLPFFVASIAQAVCDCISPGLFDVLTWLGYCNSTMNPIIYPLFMRDFKRALGRFVPCVHCPPEHRASPASPSMWTSHSGARPGLSLQQVLPLPLPPNSDSDSASGGTSGLQLTAQLLLPGEATRDPPPPTRAPTVVNFFVTDSVEPEIRQHPLGSPMN
chain 2: MAEDKTKPSELDQGKYDADDNVKIICLGDSAVGKSKLMERFLMDGFQPQQLSTYALTLYKHTATVDGRTILVDFWDTAGQERFQSMHASYYHKAHACIMVFDVQRKVTYRNLSTWYTELREFRPEIPCIVVANKIDDINVTQKSFNFAKKFSLPLYFVSAADGTNVVKLFNDAIRLAVSYKQNSQDFMDEIFQELENFSLEQEEEDVPDQEQSSSIETPSEEAASPHS

Variants of: B1
Assay: co-immunoprecipitation (IP anti-EGFP, Western blot anti-Myc), IP/input band quantitation; lysates from HEK293T cells; Input is 2.5% of lysate used for IP; parent: 100

| percent of parent | Variant |
| --- | --- |
| 103% | chain 1 L398A, chain 1 L399A, chain 1 L400A |

Variants of: B1
Assay: as above
Remark: another data set of the same source

| percent of parent | Variant |
| --- | --- |
| 121% | chain 1 L398A, chain 1 L399A, chain 1 L400A |
| 84% | chain 1 R216A, chain 1 K217A, chain 1 Q218A |
| 105% | chain 1 R216A, chain 1 K217A, chain 1 Q218A, chain 1 L398A, chain 1 L399A, chain 1 L400A |

— paper PMC7772773 (2020)
